Columns and labels:
[1] = biological target: T1, thrombin (alpha-thrombin not specified) (Homo sapiens (human plasma), UniProt P00734;P00734 328-363;364-622); experiment: EMSA; K+; only the lower (folded) band bound; 1 uM Cy5-aptamer (10 uL) annealed in 10 mM sodium cacodylate pH 7.2, 100 mM KCl in D2O; 24 pmol thrombin (2.4 eq), 30 min at 25 C; 12% native PAGE, 1x TBE + 10
[2] = biological target: T1, thrombin (alpha-thrombin not specified); experiment: EMSA; K+; band at start of lane (multi-species complex), no clotting inhibition; 1 uM Cy5-aptamer (10 uL) annealed in 10 mM sodium cacodylate pH 7.2, 100 mM KCl in D2O; 24 pmol thrombin (2.4 eq), 30 min at 25 C; 12% native PAGE, 1x TBE + 10

| Binder | binding result [1] | binding result [2] |
| --- | --- | --- |
| GGTTGGTGTGGTTGG (structured_DNA, 3'-propargyl linker) [TBA-ppg-Cy5] | binds | – |
| GGGTTGGGTGTGGGTTGGG (structured_DNA, 3'-propargyl linker) [3Q-ppg-Cy5 (Cy5-3Q)] | – | binds |
